Tests used:
Jak2 = Jak2 (UniProt O60674); test: phosphorylation enrichment, bacterial display (enrichment ratio); higher = better substrate or ligand; peptides without Tyr show the background
AncSZ = test: as above
FGFR3 = FGFR3 (UniProt P22607); test: as above
EPHB1 = EPHB1 (UniProt P54762); test: as above
Fes = Fes (UniProt P07332); test: as above
c-Abl (mouse) = test: as above
Fyn = Fyn (UniProt P06241); test: as above
MERTK = MERTK (UniProt Q12866); test: as above
Hck = Hck (UniProt P08631); test: as above
Hck, sequence (P08631 whole entry, looked up): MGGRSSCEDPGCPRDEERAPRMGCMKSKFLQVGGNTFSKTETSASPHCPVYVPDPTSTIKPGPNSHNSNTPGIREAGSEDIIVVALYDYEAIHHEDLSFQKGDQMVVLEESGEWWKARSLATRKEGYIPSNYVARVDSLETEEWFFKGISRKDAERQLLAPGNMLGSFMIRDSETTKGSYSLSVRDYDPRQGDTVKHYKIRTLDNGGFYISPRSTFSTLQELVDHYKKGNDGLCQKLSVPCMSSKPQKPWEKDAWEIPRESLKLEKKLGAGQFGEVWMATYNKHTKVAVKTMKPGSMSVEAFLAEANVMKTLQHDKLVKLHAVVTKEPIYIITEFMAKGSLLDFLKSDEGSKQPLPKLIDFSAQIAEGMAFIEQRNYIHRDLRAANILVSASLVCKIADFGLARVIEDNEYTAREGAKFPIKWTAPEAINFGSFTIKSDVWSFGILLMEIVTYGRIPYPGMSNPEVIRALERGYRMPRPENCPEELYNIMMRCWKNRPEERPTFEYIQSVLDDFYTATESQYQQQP

FGFR1 = FGFR1 (UniProt P11362); test: as above
EPHB2 = EPHB2 (UniProt P29323); test: as above
EPHB2, sequence (P29323 whole entry, looked up): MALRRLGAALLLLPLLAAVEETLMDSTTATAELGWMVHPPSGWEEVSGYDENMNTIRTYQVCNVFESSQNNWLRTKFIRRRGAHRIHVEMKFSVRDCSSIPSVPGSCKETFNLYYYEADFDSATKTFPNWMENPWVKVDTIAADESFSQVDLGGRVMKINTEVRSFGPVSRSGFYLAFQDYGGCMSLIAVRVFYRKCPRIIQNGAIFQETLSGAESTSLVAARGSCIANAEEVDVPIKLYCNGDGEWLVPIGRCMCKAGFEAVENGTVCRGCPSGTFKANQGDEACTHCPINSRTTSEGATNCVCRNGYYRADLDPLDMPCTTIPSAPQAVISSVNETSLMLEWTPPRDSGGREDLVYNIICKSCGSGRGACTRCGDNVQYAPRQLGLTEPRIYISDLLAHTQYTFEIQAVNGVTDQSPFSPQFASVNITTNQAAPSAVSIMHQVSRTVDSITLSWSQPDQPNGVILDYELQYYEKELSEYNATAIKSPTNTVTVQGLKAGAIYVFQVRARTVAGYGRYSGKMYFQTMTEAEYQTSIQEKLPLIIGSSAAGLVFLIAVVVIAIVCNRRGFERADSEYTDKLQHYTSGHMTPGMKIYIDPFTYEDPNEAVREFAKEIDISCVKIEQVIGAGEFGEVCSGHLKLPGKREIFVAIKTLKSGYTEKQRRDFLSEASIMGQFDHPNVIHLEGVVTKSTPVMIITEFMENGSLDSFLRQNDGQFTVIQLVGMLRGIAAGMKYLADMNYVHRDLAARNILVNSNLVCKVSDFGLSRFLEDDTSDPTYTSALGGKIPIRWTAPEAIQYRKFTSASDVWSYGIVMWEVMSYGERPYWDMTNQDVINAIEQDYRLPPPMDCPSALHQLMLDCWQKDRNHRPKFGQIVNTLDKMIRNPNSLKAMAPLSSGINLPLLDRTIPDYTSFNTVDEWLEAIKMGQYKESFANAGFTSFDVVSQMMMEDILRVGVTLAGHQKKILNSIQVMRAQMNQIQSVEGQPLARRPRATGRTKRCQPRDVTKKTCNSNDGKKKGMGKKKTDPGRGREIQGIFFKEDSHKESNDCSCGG

Fer (mouse) = test: as above
c-Src = test: as above
c-Src SH2 = test: SH2 binding enrichment of the phosphorylated peptide, bacterial display (enrichment ratio); higher = better substrate or ligand; peptides without Tyr show the background
SHP2-C SH2 = test: as above
Grb2 SH2 = Grb2 SH2 (UniProt P62993); test: as above
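For SH2 binding enrichment of the phosphorylated peptide, bacterial display in this document: peptide library displayed on the E. coli surface as eCPX fusions, selected cells deep-sequenced, score is each peptide's frequency after selection divided by its frequency in the input.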
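For phosphorylation enrichment, bacterial display in this document: 11-residue human phosphosite peptides and single-mutation variants displayed on the E. coli surface, counted by deep sequencing, each peptide's frequency after selection divided by its frequency in the unselected input library; frequency after pTyr selection over input frequency; kinase dosed for 20-30% of maximal phosphorylation in three min.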

Jak2, sequence (O60674 whole entry, looked up): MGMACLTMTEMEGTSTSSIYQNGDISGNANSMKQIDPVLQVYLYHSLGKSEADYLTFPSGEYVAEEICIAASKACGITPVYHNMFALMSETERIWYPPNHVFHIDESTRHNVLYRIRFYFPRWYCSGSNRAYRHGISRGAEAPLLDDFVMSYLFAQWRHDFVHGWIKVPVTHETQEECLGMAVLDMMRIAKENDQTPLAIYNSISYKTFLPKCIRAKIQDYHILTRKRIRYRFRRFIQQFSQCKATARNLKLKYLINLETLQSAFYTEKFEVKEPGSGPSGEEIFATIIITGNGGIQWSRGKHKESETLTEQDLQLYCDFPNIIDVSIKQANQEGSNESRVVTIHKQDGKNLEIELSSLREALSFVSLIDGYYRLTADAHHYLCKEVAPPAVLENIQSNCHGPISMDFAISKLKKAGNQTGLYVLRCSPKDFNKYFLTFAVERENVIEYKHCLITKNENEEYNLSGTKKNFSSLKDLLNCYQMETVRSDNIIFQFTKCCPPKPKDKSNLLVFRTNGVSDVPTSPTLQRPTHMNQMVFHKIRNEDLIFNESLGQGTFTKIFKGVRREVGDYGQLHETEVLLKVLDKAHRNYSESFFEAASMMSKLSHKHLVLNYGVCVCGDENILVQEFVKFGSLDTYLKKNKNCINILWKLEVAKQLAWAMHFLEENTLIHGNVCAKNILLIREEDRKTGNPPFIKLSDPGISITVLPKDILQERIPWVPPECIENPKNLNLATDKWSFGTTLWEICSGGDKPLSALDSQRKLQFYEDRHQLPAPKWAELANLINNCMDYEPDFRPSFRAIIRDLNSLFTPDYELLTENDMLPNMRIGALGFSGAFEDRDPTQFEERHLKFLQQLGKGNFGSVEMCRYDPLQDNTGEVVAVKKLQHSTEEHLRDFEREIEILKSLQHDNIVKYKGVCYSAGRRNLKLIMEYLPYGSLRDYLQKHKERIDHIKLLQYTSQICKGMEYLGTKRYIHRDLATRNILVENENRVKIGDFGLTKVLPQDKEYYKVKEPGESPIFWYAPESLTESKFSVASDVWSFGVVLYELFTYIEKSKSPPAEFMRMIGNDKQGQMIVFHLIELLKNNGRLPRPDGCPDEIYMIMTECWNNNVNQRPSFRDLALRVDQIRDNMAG
Fes, sequence (P07332 whole entry, looked up): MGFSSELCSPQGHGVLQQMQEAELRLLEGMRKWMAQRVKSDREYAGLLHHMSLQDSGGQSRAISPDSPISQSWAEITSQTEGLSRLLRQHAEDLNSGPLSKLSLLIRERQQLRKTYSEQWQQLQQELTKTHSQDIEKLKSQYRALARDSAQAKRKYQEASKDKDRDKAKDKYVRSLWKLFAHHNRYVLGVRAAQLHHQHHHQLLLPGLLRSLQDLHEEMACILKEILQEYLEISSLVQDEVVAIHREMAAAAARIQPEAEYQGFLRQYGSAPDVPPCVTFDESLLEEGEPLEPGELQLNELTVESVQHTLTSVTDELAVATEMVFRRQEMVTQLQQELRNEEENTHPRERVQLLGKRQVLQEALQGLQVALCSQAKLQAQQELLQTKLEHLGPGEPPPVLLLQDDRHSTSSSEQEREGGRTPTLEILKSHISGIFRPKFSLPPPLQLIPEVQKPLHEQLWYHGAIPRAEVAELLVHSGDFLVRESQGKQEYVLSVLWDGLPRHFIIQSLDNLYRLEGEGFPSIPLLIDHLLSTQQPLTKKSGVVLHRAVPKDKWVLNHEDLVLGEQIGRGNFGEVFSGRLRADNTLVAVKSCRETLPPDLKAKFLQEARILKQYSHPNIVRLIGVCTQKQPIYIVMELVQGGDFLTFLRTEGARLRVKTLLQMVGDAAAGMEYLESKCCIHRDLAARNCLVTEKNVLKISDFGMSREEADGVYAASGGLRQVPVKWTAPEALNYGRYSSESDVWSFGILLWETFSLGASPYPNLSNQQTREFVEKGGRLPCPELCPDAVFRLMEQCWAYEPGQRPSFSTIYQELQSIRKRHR
EPHB1, sequence (P54762 whole entry, looked up): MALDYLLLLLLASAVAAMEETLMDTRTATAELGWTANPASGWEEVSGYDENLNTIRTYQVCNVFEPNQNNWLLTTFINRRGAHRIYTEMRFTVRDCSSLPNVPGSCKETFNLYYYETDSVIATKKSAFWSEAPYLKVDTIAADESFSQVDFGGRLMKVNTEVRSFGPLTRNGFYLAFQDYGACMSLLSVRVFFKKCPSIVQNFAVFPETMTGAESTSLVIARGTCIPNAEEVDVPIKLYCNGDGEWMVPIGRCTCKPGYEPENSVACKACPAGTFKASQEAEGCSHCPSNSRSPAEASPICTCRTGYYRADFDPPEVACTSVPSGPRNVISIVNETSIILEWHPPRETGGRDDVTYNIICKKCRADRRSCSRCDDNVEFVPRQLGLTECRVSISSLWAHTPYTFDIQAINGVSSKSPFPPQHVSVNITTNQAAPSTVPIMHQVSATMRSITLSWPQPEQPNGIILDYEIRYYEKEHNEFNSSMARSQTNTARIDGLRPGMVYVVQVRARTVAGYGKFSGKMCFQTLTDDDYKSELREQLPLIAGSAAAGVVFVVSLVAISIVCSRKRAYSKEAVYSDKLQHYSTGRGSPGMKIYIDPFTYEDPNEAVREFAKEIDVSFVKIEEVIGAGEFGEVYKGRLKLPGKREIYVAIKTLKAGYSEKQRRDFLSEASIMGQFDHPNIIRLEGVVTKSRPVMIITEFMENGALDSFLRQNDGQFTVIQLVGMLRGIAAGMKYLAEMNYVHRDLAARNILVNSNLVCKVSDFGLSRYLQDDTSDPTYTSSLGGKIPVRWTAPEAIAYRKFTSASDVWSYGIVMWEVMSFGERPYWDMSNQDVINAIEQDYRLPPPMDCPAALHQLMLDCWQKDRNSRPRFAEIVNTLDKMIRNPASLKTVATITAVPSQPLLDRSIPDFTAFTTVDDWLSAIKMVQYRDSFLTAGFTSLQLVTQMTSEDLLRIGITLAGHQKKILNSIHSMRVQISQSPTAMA
Fyn, sequence (P06241 whole entry, looked up): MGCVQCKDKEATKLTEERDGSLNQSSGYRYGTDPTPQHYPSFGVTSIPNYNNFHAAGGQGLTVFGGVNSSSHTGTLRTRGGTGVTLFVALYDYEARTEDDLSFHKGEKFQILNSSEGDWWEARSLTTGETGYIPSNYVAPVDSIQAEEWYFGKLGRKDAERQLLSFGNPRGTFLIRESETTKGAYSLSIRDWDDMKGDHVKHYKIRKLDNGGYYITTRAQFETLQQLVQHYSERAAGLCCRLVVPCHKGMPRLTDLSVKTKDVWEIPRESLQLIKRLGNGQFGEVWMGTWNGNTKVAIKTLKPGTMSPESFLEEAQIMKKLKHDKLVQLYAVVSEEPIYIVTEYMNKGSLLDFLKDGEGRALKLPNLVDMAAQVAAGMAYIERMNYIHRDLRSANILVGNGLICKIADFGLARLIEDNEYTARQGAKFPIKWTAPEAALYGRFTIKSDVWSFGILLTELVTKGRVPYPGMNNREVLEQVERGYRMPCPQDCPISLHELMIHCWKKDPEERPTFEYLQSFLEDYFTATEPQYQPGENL

Row | SH2 binding enrichment (c-Src SH2) | SH2 binding enrichment (SHP2-C SH2) | SH2 binding enrichment (Grb2 SH2) | Sequence | phosphorylation enrichment (Jak2) | phosphorylation enrichment (AncSZ) | phosphorylation enrichment (FGFR3) | phosphorylation enrichment (EPHB1) | phosphorylation enrichment (Fes) | phosphorylation enrichment (c-Abl (mouse)) | phosphorylation enrichment (Fyn) | phosphorylation enrichment (MERTK) | phosphorylation enrichment (Hck) | phosphorylation enrichment (FGFR1) | phosphorylation enrichment (EPHB2) | phosphorylation enrichment (Fer (mouse)) | phosphorylation enrichment (c-Src)
1 | 0.493 | 0.802 | 1.01 | GRQGIYTKNER [GPR143_Y231_E233K] | 0.46 | 0.422 | 0.371 | 0.357 | 0.466 | 0.422 | 0.386 | 0.359 | 0.327 | 0.447 | 0.329 | 0.556 | 0.327
2 | 0.833 | 0.912 | 1.15 | GSRGKYSSGFR [ATM_Y332] | 0.62 | 0.512 | 0.453 | 0.318 | 0.603 | 0.547 | 0.38 | 0.559 | 0.338 | 0.657 | 0.36 | 0.793 | 0.649
3 | 0.953 | 0.953 | 0.995 | GTHCHYKAPIV [FZD9_Y569_T573I] | 0.658 | 1.32 | 0.636 | 0.513 | 0.858 | 3.44 | 0.428 | 0.4 | 0.544 | 0.531 | 0.532 | 0.58 | 0.395
4 | 0.704 | 0.833 | 1.03 | GTQCSYLLSRK [UGT3A1_Y123] | 0.655 | 0.634 | 0.441 | 0.427 | 0.676 | 0.569 | 0.329 | 0.436 | 0.392 | 0.482 | 0.554 | 0.43 | 0.42
5 | 0.622 | 0.631 | 0.845 | GVASDYKCVDP [VPS13B_Y1991_I1994V] | 0.964 | 1.05 | 0.821 | 0.624 | 1.16 | 0.791 | 0.504 | 0.476 | 0.537 | 0.533 | 0.62 | 0.548 | 0.458
6 | 0.575 | 0.636 | 0.614 | GVVVPYEPPEV [TP53_Y220_S215G] | 1.25 | 0.892 | 0.581 | 0.493 | 0.905 | 0.695 | 0.366 | 0.387 | 0.41 | 0.39 | 0.559 | 0.563 | 0.352
7 | 3.06 | 0.639 | 0.972 | HDRNTYEKFLE [TF_Y666_G671E_YF] | 0.859 | 1.07 | 0.522 | 0.525 | 1.03 | 0.561 | 0.741 | 0.848 | 0.491 | 0.432 | 0.64 | 0.56 | 0.818
8 | 2.25 | 0.672 | 1.18 | HEGKIYEYNQV [ZNF665_Y162] | 1.39 | 1.98 | 0.81 | 1.06 | 1.56 | 5.38 | 3.02 | 6.51 | 2.04 | 0.746 | 0.987 | 18.4 | 4.23
9 | 0.535 | 0.714 | 0.857 | HFGCVYFGTLL [MET_Y1093_H1094Y_YF] | 1.18 | 1.77 | 1.51 | 0.917 | 1.23 | 0.695 | 0.899 | 0.528 | 0.763 | 1.01 | 0.699 | 0.458 | 3.7
10 | 0.633 | 0.847 | 0.874 | HFVDEYDLTIE [KRAS_Y32_P34L] | 2.13 | 2.56 | 1.14 | 0.711 | 2.16 | 1.4 | 0.811 | 0.812 | 0.749 | 0.752 | 0.423 | 0.841 | 0.922
11 | 1.22 | 0.868 | 0.887 | HGEAFYSEVKP [PAK5_Y182_YF] | 0.609 | 1 | 2.49 | 2.01 | 1.04 | 1.02 | 2.95 | 9.01 | 4.38 | 3.57 | 1.37 | 12.3 | 2.27
12 | 0.573 | 0.708 | 1.01 | HICTAYELVLA [DHCR24_Y190] | 1.6 | 1.8 | 2.2 | 0.891 | 1.74 | 1.13 | 0.598 | 1.56 | 0.779 | 3.12 | 1.02 | 8.27 | 2.77
13 | 0.749 | 0.531 | 0.901 | HNELFYEAAEH [VANGL1_Y345_E347A_YF] | 0.944 | 1.85 | 0.884 | 0.586 | 1.55 | 1.47 | 1.05 | 1.46 | 1.51 | 0.826 | 0.842 | 9.73 | 1.89
14 | 0.645 | 0.733 | 0.599 | HNELFYEEAEH [VANGL1_Y345_YF] | 0.981 | 1.89 | 0.964 | 0.819 | 1.35 | 0.727 | 0.942 | 0.525 | 0.974 | 0.809 | 0.932 | 4.23 | 0.484
15 | 0.603 | 0.962 | 0.97 | HQNGMYGLHQD [SGSH_Y89] | 0.726 | 0.643 | 0.516 | 0.346 | 0.886 | 0.726 | 0.568 | 0.678 | 0.564 | 0.673 | 0.591 | 0.656 | 0.647
16 | 0.341 | 0.654 | 1.36 | HRGHLYLAIEY [TEK_Y899_Y897H] | 0.977 | 1.51 | 1.23 | 1.08 | 1.56 | 0.599 | 0.447 | 0.495 | 0.572 | 0.942 | 1.16 | 0.741 | 0.344
17 | 0.467 | 0.699 | 0.933 | HSLRDYKEALM [ADA2_Y337_H335R] | 1.03 | 0.746 | 0.881 | 0.775 | 1.4 | 0.751 | 0.388 | 0.649 | 0.679 | 0.601 | 0.45 | 0.44 | 0.56
18 | 2.72 | 3.32 | 0.812 | HYGNNYTDVLQ [MACC1_Y803_R804T] | 1.35 | 1.59 | 1.05 | 5.63 | 1.76 | 2.17 | 0.635 | 0.935 | 1.12 | 1.14 | 1.45 | 2.53 | 0.816
19 | 0.564 | 0.471 | 0.802 | HYPDVYAREQL [ALX3_Y181] | 0.892 | 0.481 | 0.58 | 0.518 | 0.912 | 0.511 | 0.906 | 0.494 | 1.14 | 0.651 | 0.513 | 0.36 | 0.709
20 | 0.543 | 0.482 | 0.765 | IAKNPYDPPGR | 0.635 | 0.56 | 0.48 | 0.363 | 0.689 | 0.455 | 0.344 | 0.426 | 0.316 | 0.405 | 0.333 | 0.37 | 0.38
21 | 0.628 | 0.645 | 1 | IALNSCHSRNC [IFNGR1_Y397_Y397C] | 0.375 | 0.48 | 0.371 | 0.337 | 0.506 | 0.36 | 0.359 | 0.406 | 0.358 | 0.486 | 0.351 | 0.379 | 0.401
22 | 1.33 | 1.89 | 1.26 | IALSKYGRVKW [FGF6_Y186_R191W] | 0.56 | 0.603 | 0.357 | 0.316 | 0.985 | 0.748 | 0.306 | 0.365 | 0.438 | 0.387 | 0.329 | 0.413 | 0.437
23 | 0.538 | 0.795 | 0.883 | ICRWVYPLTPE [EIF2B5_Y319_R315C] | 1.14 | 1.29 | 0.733 | 0.5 | 1.36 | 0.739 | 0.528 | 0.505 | 0.585 | 0.516 | 0.542 | 0.405 | 0.578
24 | 0.803 | 0.631 | 0.677 | IDDNQYAFLKA [HNF4A_Y286_E285Q_YF] | 0.709 | 0.823 | 1.61 | 0.494 | 0.839 | 1.02 | 0.604 | 0.84 | 1.64 | 2.5 | 0.487 | 0.852 | 0.553
25 | 0.491 | 0.558 | 0.819 | IDGLEYLHSPG [STK11_Y166_Q170P] | 0.746 | 0.931 | 0.543 | 0.377 | 0.69 | 0.5 | 0.44 | 0.431 | 0.454 | 0.467 | 0.584 | 0.426 | 0.37
26 | 0.642 | 0.679 | 0.782 | IEKLPYIDKWF [CPS1_Y872_T871P] | 0.833 | 0.953 | 0.567 | 0.472 | 1.01 | 0.574 | 0.368 | 0.359 | 0.456 | 0.51 | 0.482 | 0.333 | 0.479
27 | 1.21 | 1.47 | 1.7 | IFCIQYNICAF [MYH4_Y820_R823C] | 1.56 | 1.28 | 0.807 | 0.686 | 1.53 | 1.14 | 0.421 | 0.421 | 0.45 | 0.451 | 0.9 | 0.538 | 0.513
28 | 0.685 | 1.07 | 1.08 | IFCIQYNIRAF [MYH4_Y820] | 1.57 | 1.57 | 1.08 | 0.821 | 1.76 | 1.35 | 0.445 | 0.436 | 0.608 | 0.525 | 0.678 | 0.596 | 0.599

Row | Sequence | SH2 binding enrichment (c-Src SH2) | SH2 binding enrichment (SHP2-C SH2) | SH2 binding enrichment (Grb2 SH2) | phosphorylation enrichment (Jak2) | phosphorylation enrichment (AncSZ) | phosphorylation enrichment (FGFR3) | phosphorylation enrichment (EPHB1) | phosphorylation enrichment (Fes) | phosphorylation enrichment (c-Abl (mouse)) | phosphorylation enrichment (Fyn) | phosphorylation enrichment (MERTK) | phosphorylation enrichment (Hck) | phosphorylation enrichment (FGFR1) | phosphorylation enrichment (EPHB2) | phosphorylation enrichment (Fer (mouse)) | phosphorylation enrichment (c-Src)
29 | IDDNEYAYLKA [HNF4A_Y286] | 0.467 | 0.545 | 0.863 | 0.849 | 1.24 | 0.868 | 0.507 | 0.991 | 0.571 | 0.564 | 0.423 | 0.707 | 1 | 0.601 | 0.507 | 0.677

From the supplement of paper PMC10065799, “High-throughput profiling of sequence recognition by tyrosine kinases and SH2 domains using bacterial peptide display” (eLife, 2023)
